Reference: paper PMC12224427, “The non-metabolic function of 6PGD coordinates CCNA2 and HMGA2 expression to drive colorectal cancer progression and drug response” (Journal of Experimental & Clinical Cancer Research : CR, 2025)

Target: T1, recombinant 6PGD (re6PGD) (UniProt P52209 1-483)
T1 construct: 6-phosphogluconate dehydrogenase (6PGD), wild type; source: bacterially expressed recombinant
T1 sequence (looked up): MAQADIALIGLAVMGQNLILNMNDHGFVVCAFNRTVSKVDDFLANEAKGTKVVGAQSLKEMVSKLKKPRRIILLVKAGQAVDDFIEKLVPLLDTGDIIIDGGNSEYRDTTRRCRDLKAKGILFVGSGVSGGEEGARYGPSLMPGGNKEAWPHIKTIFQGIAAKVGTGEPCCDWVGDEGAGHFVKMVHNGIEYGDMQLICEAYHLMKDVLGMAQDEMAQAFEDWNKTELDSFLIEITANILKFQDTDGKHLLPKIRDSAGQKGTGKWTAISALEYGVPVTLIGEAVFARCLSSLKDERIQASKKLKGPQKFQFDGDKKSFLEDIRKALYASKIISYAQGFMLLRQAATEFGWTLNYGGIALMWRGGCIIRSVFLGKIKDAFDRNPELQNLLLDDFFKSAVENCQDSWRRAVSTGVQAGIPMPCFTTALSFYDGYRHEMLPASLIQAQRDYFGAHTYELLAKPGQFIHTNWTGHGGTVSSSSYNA
Assay: MST; microscale thermophoresis of 6PGD and ALKBH5 (Fig. S5A); conditions not shown
Conditions: both partners purified

B1: recombinant ALKBH5 (reALKBH5; aa:66–292) (domain or fragment, UniProt Q6P6C2 66-292, looked up)
chain: PERSDYEEQQLQKEEEARKVKSGIRQMRLFSQDECAKIEARIDEVVSRAEKGLYNEHTVDRAPLRNKYFFGEGYTYGAQLQKRGPGQERLYPPGDVDEIPEWVHQLVIQKLVEHRVIPEGFVNSAVINDYQPGGCIVSHVDPIHIFERPIVSVSFFSDSALCFGCKFQFKPIRVSEPVLSLPVRRGSVTVLSGYAADEITHCIRPQDIKERRAVIILRKTRLDAPRL
notes: ALKBH5, residues 66-292; The range 66-292 is printed where the in vitro methylation assay is told; source: recombinant
Kd: 1.63 µM
